B1: HD-23Q: N-terminal region of human huntingtin (amino acids 1-253) with 23 glutamines, expression construct (protein)
chain: MATLEKLMKAFESLKSFQQQQQQQQQQQQQQQQQQQQQPPPPPPPPPPPQLPQPPPQAQPLLPQPQPPPPPPPPPPGPAVAEEPLHRPKKELSATKKDRVNHCLTICENIVAQSVRNSPEFQKLLGIAMELFLLCSDDAESDVRMVADECLNKVIKALMDSNLPRLQLELYKEIKKNGAPRSLRAALWRFAELAHLVRPQKCRPYLVNLLPCLTRTSKRPEESVQETLAAAVPKIMASFGNFANDNEIKVLLK
B2: CNTF: ciliary neurotrophic factor (protein, UniProt P26441 1-200, looked up)
Ciliary neurotrophic factor: MAFTEHSPLTPHRRDLCSRSIWLARKIRSDLTALTESYVKHQGLNKNINLDSADGMPVASTDQWSELTEAERLQENLQAYRTFHVLLARLLEDQQVHFTPTEGDFHQAIHTLLLQVAAFAYQIEELMILLEYKIPRNEADGMPINVGDGGLFEKKLWGLKVLQELSQWTVRSIHDLRFISSHQTGIPARGSHYIANNKKM
B3: HAP1-A: huntingtin-associated protein isoform expressed from cloned cDNA in pCIS vector transfected into PC12 cells (protein)
chain: MRPKDQVQSSAGDGTGSGDPATGTPTTQPAADPAPEPSAEPKPAPAQGTGSGQKSGSRTKTGGSFCRSRIRGDSDAPWTRYIFQGPYGPRATGLGTGRAEGIWKTPAAYIGRRPGVSGPERAAFIRELQEALCPNPLPRKKITEDDIKVMLYLLEEKERDLNTAARIGQSLVKQNSVLMEENNKLETMLGSAREEILHLRKQVNLRDDLLQLYSDSDDDEEDEEDEEEEEGEEEEREGQRDQDQQHDHPYGAPKPPPKAETLHHCPQLEALKQKLKLLEEENDHLREEASHLDNLEDKEQMLILECVEQFSEASQQMAELSEVLVLRLEGYERQQKEITQLQAEITKLQQRCQSYGAQTEKLQQQLASEKGVHPESLRAGSHMQDYGSRPRERQEDGKSHRQRSSMPAGSVTHYGYSVPLDALPSFPETLAEELRTSLRKFITDPAYFMERCDTRCREERKKEQGTMPPPPVQDLKPPEDFEAPEELVPEEELGAIEEVGTAEDGPAEETEQASEETEAWEEVEPEVDEATRMNVVVSALEASGLGPSHLDMKYVLQQLSNWQDAHSKRQQKQKVVPKGECSRRGHPPASGTSYRSSTL

Columns and labels:
[1] = test system: PC12 cells; experiment: Transfection of PC12 cells, immunofluorescence: neurites and perinuclear inclusions; format: cell-based, rat; settings: for transfected cells with neurites: neurites exceeding two body diameters, vector alone 4.7%
Experimental: cDNA constructs and transfection of cells. Cloned HAP1-A and HAP1-B cDNAs were inserted into the expression vector pCIS (Li et al., 1995) carrying the cytomegalovirus promoter. The expression constructs encoding N-terminal human huntingtin (253 amino acids) with 23, 73, or 120 glutamines were obtained in a previous study (Li and Li, 1998). PC12 cells were plated onto two-well chamber slides at a density of 50,000/cm^2 and cultured for 24 h. Two micrograms of plasmid DNA was then added to each well in a 1-ml solution containing Lipofectamine (10 μg/ml), yielding 3-8% transfected cells. Following 18-24 h transfection, the media were replaced with fresh growth media and the cells were grown for another 24 h before immunofluorescent staining. The immunostaining images were captured using a 3CCD camera video system. Neurite length was measured as cell body diameters. The average sizes (μm) of perinuclcar huntingtin inclusions were obtained by measuring the diameters of inclusions in 58-112 cells transfected with huntingtin alone. The percentage of transfected cells with neurites that exceeded two body diameters was obtained by counting 200-300 transfected cells in three independent experiments. For double transfection, equal amounts (2 μg for each) of HAP1-A and huntingtin cDNAs were transfected into PC12 cells in each well of six-well dishes. The transfected cells were immunostained with the rabbit polyclonal antibody for HAP1-A and mouse monoclonal antibody for huntingtin.

[2] = test system: parental PC12 cells; experiment: Neurite outgrowth assay, parental PC12 cells; format: cell-based, rat; settings: control/parental PC12 cells; IL-6 20 ng/ml, CNTF 20 ng/ml, EGF 10 ng/ml, bFGF 20 ng/ml
Experimental: To evaluate neurite outgrowth, we plated the cells at low density (2×10^4 Cells/cm^2) onto six-well plates. Cell cultures were treated with NGF (100 ng/ml) for 48 hr or with staurosporine (50-100 nM) and EGF (10 ng/ml) for 16 hr and were fixed with 4% paraformaldehyde in PBS for 15 min. After several washes with PBS, cells with neurites exceeding the cell diameter were counted using an inverted microscope (Olympus Optical CK2, Tokyo, Japan). At the same time, five to seven images (10×) were captured by a Pixera camera, and the percentage of cells with neurites was confirmed by analyzing these images. On average, 500-800 cells were counted for each group.

Row | Molecule | cells with elongated neurites ([1]; double transfection with HAP1-A, HAP1-A alone 29.4%) | transfected cells with neurites ([1]; single transfection) | neurite outgrowth promoted by growth factor [2] | length of the neurites ([1]; single transfection)
1 | B1 | 24.6% | 5.1% |  | 
2 | B2 |  |  | did not promote neurite outgrowth | 
3 | B3 |  | 29.4% |  | 3.8 body diameters

Source: patent US6355481B1, “Hybridoma cell line and monoclonal antibody for huntingtin protein” (Emory University, priority 1999, dated 2002)
